Assay results published in US20240026011A1 (Takeda / Millennium, published 2024).

Biological target: T1, EGFR (UniProt P00533 25-645, limits assumed)
T1 construct: also called target EGFR

Kd: 2 nM
koff: 0.00044 s⁻¹
kon: 221000 M⁻¹ s⁻¹
B1: Pro90 (hEGFR1) (other)
VHH: EVQLVESGGGLVQPGGSLRLSCAASGRTFSSYAMGWFRQAPGKEREFVVAINWSSGSTYYADSVKGRFTISRDNSKNTLYLQMNSLRAEDTAVYYCAAGYQINSGNYNFKDYEYDYWGQGTLVTVSS
